Our source for the binding signal, binding result and Kd values is paper PMC4014563, “A High-Throughput Method to Examine Protein-Nucleotide Interactions Identifies Targets of the Bacterial Transcriptional Regulatory Protein Fur”.

For data set [1], the target named is T1, Fur (ferric uptake regulator) (Neisseria gonorrhoeae F62, UniProt Q51008 1-144).
T1 sequence: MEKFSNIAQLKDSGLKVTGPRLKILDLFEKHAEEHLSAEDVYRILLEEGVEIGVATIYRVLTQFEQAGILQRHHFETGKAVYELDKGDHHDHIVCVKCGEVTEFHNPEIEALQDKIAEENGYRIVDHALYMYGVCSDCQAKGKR
Put plainly: IRIS; 400 nM Fur (concentration implied); ~1 dimer/dsDNA; 20 mM Tris-Cl pH 7.9, 5 mM MgCl2, 40 mM KCl, 0.125 mM MnCl2, 2 mM DTT, 10% glycerol, 0.19 ug/uL poly dIdC (EMSA also 3.125 ug/uL BSA), RT; IRIS 2 hr, EMSA 30 min with 12.5 nM probe. To be noted: protein: recombinant; tags: N-terminal 6xHis (pET15b) cleaved with thrombin and removed; chain copies: 2; label: surface-immobilized; blunt. For orientation: A gel shift assay detects complexes by their altered migration in electrophoresis.

In data set [2] the target is T1, Fur (ferric uptake regulator). Put plainly: IRIS; no DSH increase up to 800 nM Fur; 20 mM Tris-Cl pH 7.9, 5 mM MgCl2, 40 mM KCl, 0.125 mM MnCl2, 2 mM DTT, 10% glycerol, 0.19 ug/uL poly dIdC (EMSA also 3.125 ug/uL BSA), RT; IRIS 2 hr, EMSA 30 min with 12.5 nM probe. To be noted: protein: recombinant; tags: N-terminal 6xHis (pET15b) cleaved with thrombin and removed; chain copies: 2; label: surface-immobilized; blunt.

Data set [3] has the same target. Briefly: EMSA; Mn2+; apparent Kd; 20 mM Tris-Cl pH 7.9, 5 mM MgCl2, 40 mM KCl, 0.125 mM MnCl2, 2 mM DTT, 10% glycerol, 0.19 ug/uL poly dIdC (EMSA also 3.125 ug/uL BSA), RT; IRIS 2 hr, EMSA 30 min with 12.5 nM probe. Particulars: protein: recombinant; tags: N-terminal 6xHis (pET15b) cleaved with thrombin and removed; chain copies: 2; label: surface-immobilized (IRIS); 32P (EMSA); blunt.

For data set [4] the target is unchanged. Put plainly: IRIS; 200 nM Fur; 1 dimer/dsDNA; 20 mM Tris-Cl pH 7.9, 5 mM MgCl2, 40 mM KCl, 0.125 mM MnCl2, 2 mM DTT, 10% glycerol, 0.19 ug/uL poly dIdC (EMSA also 3.125 ug/uL BSA), RT; IRIS 2 hr, EMSA 30 min with 12.5 nM probe. Particulars: protein: recombinant, tags: N-terminal 6xHis (pET15b) cleaved with thrombin and removed, chain copies: 2, blunt.
Data set [5] has the same target. Put plainly: IRIS; 400 nM Fur; 0.5 dimer/dsDNA; 20 mM Tris-Cl pH 7.9, 5 mM MgCl2, 40 mM KCl, 0.125 mM MnCl2, 2 mM DTT, 10% glycerol, 0.19 ug/uL poly dIdC (EMSA also 3.125 ug/uL BSA), RT; IRIS 2 hr, EMSA 30 min with 12.5 nM probe. To be noted: protein: recombinant; tags: N-terminal 6xHis (pET15b) cleaved with thrombin and removed; chain copies: 2; label: surface-immobilized; blunt.

B1: NGO1189 promoter probe (dsDNA)
DNA 1: ACTGCCGGTTTGAAAAAAGAATCCATATCGGTGTTTCCGCGCAGGAGGC
DNA 2: GCCTCCTGCGCGGAAACACCGATATGGATTCTTTTTTCAAACCGGCAGT
modifications: 5' amino-C6 on strand 1
As for B1, the binding signal in data set [1] is 2 ± 0.03 nm DSH.

B2: NGO1745 promoter probe (dsDNA)
DNA 1: TACAGATGAAGACAATGAGCGTGCTGTTAAAGAGTTATTTAAGTCATTT
DNA 2: AAATGACTTAAATAACTCTTTAACAGCACGCTCATTGTCTTCATCTGTA
modifications: 5' amino-C6 on strand 1
For the molecule B2, the binding result in data set [2] is “no binding”.

B3: NGO0073 promoter probe (dsDNA)
DNA 1: CTGTATAAATGATAATGGTTCTATTTTAATAAAGCACAACGCGGCTTGT
DNA 2: ACAAGCCGCGTTGTGCTTTATTAAAATAGAACCATTATCATTTATACAG
modifications: 5' amino-C6 on strand 1 (IRIS)
Regarding B3, the Kd in data set [3] turned out to be 39.8 ± 6.3 nM.

B4: NGO0101 promoter probe (dsDNA)
DNA 1: CATATTTGAATATAAAAAAGAGCATTGTTGCGTTATCCAATGCTGTAAT
DNA 2: ATTACAGCATTGGATAACGCAACAATGCTCTTTTTTATATTCAAATATG
modifications: 5' amino-C6 on strand 1 (IRIS)
In the case of B4, the Kd in data set [3] came to 406 ± 145 nM. Moreover, the binding signal in data set [4] (label: surface-immobilized (IRIS), 32P (EMSA)) is 1.9 ± 0.4 nm DSH.

B5: NGO1284 promoter probe (dsDNA)
DNA 1: ACACGGGAAATAATATCAATATATTGATTTACAAACATAAAAATCATGC
DNA 2: GCATGATTTTTATGTTTGTAAATCAATATATTGATATTATTTCCCGTGT
modifications: 5' amino-C6 on strand 1
Take B5: the binding signal in data set [5] stood at 1.7 ± 0.03 nm DSH.

B6: fur promoter Fur box probe (dsDNA)
DNA 1: CTGCTTGAATATTTTATAAAAGCGAACGATAATCATACGCTTAAGCGGT
DNA 2: ACCGCTTAAGCGTATGATTATCGTTCGCTTTTATAAAATATTCAAGCAG
modifications: 5' amino-C6 on strand 1 (IRIS)
Regarding B6, in data set [3], the Kd amounted to 31.8 ± 7.9 nM.

B7: NGO0304 promoter probe (dsDNA)
DNA 1: GAACGAAAATTGATAAAACAAAAGTTAATTAATTGATTGAGAACATAAC
DNA 2: GTTATGTTCTCAATCAATTAATTAACTTTTGTTTTATCAATTTTCGTTC
modifications: 5' amino-C6 on strand 1
Consider B7, for which the binding signal in data set [1] is 2 ± 0.1 nm DSH.

B8: NGO1419 promoter probe (dsDNA)
DNA 1: TGACGAAAAAACAAAGAAGTATACTTCTTTTTAGTTATGGTTGATTCCA
DNA 2: TGGAATCAACCATAACTAAAAAGAAGTATACTTCTTTGTTTTTTCGTCA
modifications: 5' amino-C6 on strand 1
B8: the binding signal in data set [4] (label: surface-immobilized) came out at 1.9 ± 0.4 nm DSH.

B9: NGO0155 promoter probe (dsDNA)
DNA 1: GATATTTTGTGCTAAAAATTTATATAATATTTAAATTAATATCAAGTTA
DNA 2: TAACTTGATATTAATTTAAATATTATATAAATTTTTAGCACAAAATATC
modifications: 5' amino-C6 on strand 1
In the case of B9, the binding signal in data set [1] amounted to 1.9 ± 0.1 nm DSH.

B10: NGO1948 promoter probe (dsDNA)
DNA 1: TCTTTCCGTCAAAATACTTTCTTTTTATATTCATTAACTTGTTAAATTA
DNA 2: TAATTTAACAAGTTAATGAATATAAAAAGAAAGTATTTTGACGGAAAGA
modifications: 5' amino-C6 on strand 1
Turning to B10, in data set [5], the binding signal came out at 1.7 ± 0.07 nm DSH.

B11: NGO1683 promoter probe (NGO1684 in Table 1) (dsDNA)
DNA 1: GCGGCGATTGTAATATAAGCGGCGGTATTTGTGTAGTTTTCTTCAGACG
DNA 2: CGTCTGAAGAAAACTACACAAATACCGCCGCTTATATTACAATCGCCGC
modifications: 5' amino-C6 on strand 1
As to B11, in data set [2], the binding result was “no binding”.

B12: NGO1845 promoter probe (dsDNA)
DNA 1: CGGCAAACAAGAAAATCATCTTTTTTCTTGTCGTTATGCTTGACTGTCT
DNA 2: AGACAGTCAAGCATAACGACAAGAAAAAAGATGATTTTCTTGTTTGCCG
modifications: 5' amino-C6 on strand 1
Consider B12, for which, in data set [5], the binding signal stood at 1.7 ± 0.3 nm DSH.

B13: NGO0641 promoter probe (dsDNA)
DNA 1: AAAGACAGCAAAGAATTGATTTTATTATAATTTATTTGTAAAGCCATTT
DNA 2: AAATGGCTTTACAAATAAATTATAATAAAATCAATTCTTTGCTGTCTTT
modifications: 5' amino-C6 on strand 1
On to B13, for which, in data set [4] (label: surface-immobilized), the binding signal is 2 ± 0.1 nm DSH.

B14: NGO0899 promoter probe (dsDNA)
DNA 1: TTTTATGCCGAAAATTGATTTTTTTTAAATTTTTTGTTTCTAAAATTTT
DNA 2: AAAATTTTAGAAACAAAAAATTTAAAAAAAATCAATTTTCGGCATAAAA
modifications: 5' amino-C6 on strand 1
As for B14, the binding signal in data set [1] was 2.2 ± 0.1 nm DSH.
